Reference: article PMC11617674, “The activity of the ribonucleotide monophosphatase UmpH is controlled by interaction with the GlnK signaling protein in Escherichia coli” (The Journal of Biological Chemistry, 2024)

Key:
[1] = biological target: UmpH (ribonucleotide monophosphatase), untagged recombinant (E. coli) (UniProt P0AF24)
[2] = biological target: UmpH (ribonucleotide monophosphatase), untagged recombinant (E. coli) (UniProt P0AF24); remark: listed apart in the source
[3] = biological target: His-GlnK (E. coli PII signaling protein GlnK, N-terminal His tag) (E. coli) (UniProt P0AC55); assay: BLI; His-GlnK on Ni-NTA biosensor, UmpH as analyte; 20 mM Hepes pH 7.4, 50 mM KCl, 5 mM MgCl2, 2 mM DTT, 2 mM NAG; no effector; 1:1 (GlnK trimer:UmpH monomer) model
[4] = biological target: His-GlnK (E. coli PII signaling protein GlnK, N-terminal His tag) (E. coli) (UniProt P0AC55); assay: BLI; His-GlnK on Ni-NTA biosensor, UmpH as analyte; 20 mM Hepes pH 7.4, 50 mM KCl, 5 mM MgCl2, 2 mM DTT, 2 mM NAG; 1 mM ATP; 1:1 (GlnK trimer:UmpH monomer) model
[5] = biological target: His-GlnK (E. coli PII signaling protein GlnK, N-terminal His tag) (E. coli) (UniProt P0AC55); assay: BLI; His-GlnK on Ni-NTA biosensor, UmpH as analyte; 20 mM Hepes pH 7.4, 50 mM KCl, 5 mM MgCl2, 2 mM DTT, 2 mM NAG; 1 mM ADP; 1:1 (GlnK trimer:UmpH monomer) model

Chain of UmpH (ribonucleotide monophosphatase), untagged recombinant (E. coli) (P0AF24 whole entry): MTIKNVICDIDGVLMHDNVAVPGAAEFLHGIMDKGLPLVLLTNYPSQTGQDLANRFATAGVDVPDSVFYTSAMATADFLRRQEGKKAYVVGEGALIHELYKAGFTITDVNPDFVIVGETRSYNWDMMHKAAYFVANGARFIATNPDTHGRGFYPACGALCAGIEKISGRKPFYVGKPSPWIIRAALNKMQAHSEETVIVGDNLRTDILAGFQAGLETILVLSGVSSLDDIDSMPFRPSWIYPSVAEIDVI
Chain of His-GlnK (E. coli PII signaling protein GlnK, N-terminal His tag) (E. coli) (P0AC55 whole entry): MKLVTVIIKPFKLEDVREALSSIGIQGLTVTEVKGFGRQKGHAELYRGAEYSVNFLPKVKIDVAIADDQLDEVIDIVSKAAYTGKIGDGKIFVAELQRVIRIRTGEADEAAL

inhibition of UmpH phosphatase activity (0.5 mM UMP, 0.1 mM ADP, 0.56 μM UmpH) against increasing GlnK trimer up to 2 μM [1] | UmpH Vmax (phosphate release from UMP), decrease in the presence of 2 μM GlnK trimer, 0.56 μM UmpH monomer, no GlnK effectors [2] | UmpH catalytic efficiency (Vmax/KM) for UMP, decrease in the presence of 2 μM GlnK trimer, 0.56 μM UmpH monomer, no GlnK effectors [2] | Kd [3] | Kd [4] | Kd [5] | Substance
50% | 30% | 68% | – | – | – | His-GlnK (E. coli PII signaling protein GlnK, N-terminal His tag) (from UniProt P0AC55 1-112) (natural protein)
– | – | – | 50.6 nM | 37.3 nM | 7.8 nM | UmpH (ribonucleotide monophosphatase), untagged recombinant (from UniProt P0AF24 1-250) (enzyme)
